Measurements taken from US7658917 (PRAECIS PHARMACEUTICALS, dated 2010).
Like-named read-outs stand apart in the source and are kept apart here. Ends that are not written are not given here. * marks the point of attachment. Cholyl = C[C@H](CCC(=O)*)[C@H]1CC[C@H]2[C@@H]3[C@H](O)C[C@@H]4C[C@H](O)CC[C@]4(C)[C@H]3C[C@H](O)[C@]12C

Key:
Assay in all cases: cell-based or functional assay
[1] = target: natural β-amyloid peptide β-AP1-40 (human)
[2] = target: natural β-amyloid peptide β-AP1-40 (human); remark: listed apart in the source
Target sequence in this assay (peptide, as listed by the source): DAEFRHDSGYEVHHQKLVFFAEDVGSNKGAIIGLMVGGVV

[3] = target: natural β-amyloid peptide β-AP1-40 (human); remark: listed apart in the source
Target sequence in this assay (peptide, as listed by the source): as above

[4] = target: natural β-amyloid peptide β-AP1-40 (human); remark: listed apart in the source
[5] = target: natural β-amyloid peptide β-AP1-40 (human); remark: listed apart in the source

B1: cholyl-Aβ6-10-amide (peptide)
peptide: Cholyl-HDSGY-NH2
SMILES: C[C@H](CCC(=O)N[C@@H](Cc1c[nH]cn1)C(=O)N[C@@H](CC(=O)O)C(=O)N[C@@H](CO)C(=O)NCC(=O)N[C@@H](Cc1ccc(O)cc1)C(N)=O)[C@H]1CC[C@H]2[C@@H]3[C@H](O)C[C@@H]4C[C@H](O)CC[C@]4(C)[C@H]3C[C@H](O)[C@]12C
% Inhibition of Plateau; nucleation assay; 33 mole % [1]: 13% | Fold Increase in Lag Time; nucleation assay; 33 mole % [1]: 1.1 fold | % Inucl'n; nucleation assay; 100 mole % [2]: -18% | ΔLag; nucleation assay; 100 mole % [2]: 1.1 ratio

B2: cholyl-Aβ6-20 (peptide)
peptide: Cholyl-HDSGYEVHHQKLVFF
% Inhibition of Plateau; nucleation assay; 100 mole % [3]: 100% | Fold Increase in Lag Time; nucleation assay; 100 mole % [3]: > 4.5 fold | % Inhibition of Plateau; nucleation assay; 100 mole % [1]: 100% | Fold Increase in Lag Time; nucleation assay; 10 mole % [1]: 2 fold | Fold Increase in Lag Time; nucleation assay; 100 mole % [1]: > 4.5 fold | % Inhibition of Plateau; nucleation assay; 10 mole % [4]: 43% | Fold Increase in Lag Time; nucleation assay; 10 mole % [4]: 2 fold

B3: cholyl-Aβ13-20 (peptide)
peptide: Cholyl-HHQKLVFF
% Inhibition of Plateau; nucleation assay; 33 mole % [1]: ~0% | Fold Increase in Lag Time; nucleation assay; 33 mole % [1]: 2.6 fold | % Inhibition of Plateau; nucleation assay; 10 mole % [4]: 57% | Fold Increase in Lag Time; nucleation assay; 10 mole % [4]: 2.2 fold

B4: cholyl-Aβ15-20 (peptide)
peptide: Cholyl-QKLVFF-OH
SMILES: CC(C)C[C@H](NC(=O)[C@H](CCCCN)NC(=O)[C@H](CCC(N)=O)NC(=O)CC[C@@H](C)[C@H]1CC[C@H]2[C@@H]3[C@H](O)C[C@@H]4C[C@H](O)CC[C@]4(C)[C@H]3C[C@H](O)[C@]12C)C(=O)N[C@H](C(=O)N[C@@H](Cc1ccccc1)C(=O)N[C@@H](Cc1ccccc1)C(=O)O)C(C)C
% Inhibition of Plateau; nucleation assay; 33 mole % [1]: 50% | Fold Increase in Lag Time; nucleation assay; 33 mole % [1]: 2.3 fold | % Inhibition of Plateau; nucleation assay; 10 mole % [4]: ~0% | % Inhibition of Plateau; nucleation assay; 100 mole % [4]: 100% | Fold Increase in Lag Time; nucleation assay; 10 mole % [4]: 2.1 fold | Fold Increase in Lag Time; nucleation assay; 33 mole % [4]: 2.6 fold | Fold Increase in Lag Time; nucleation assay; 100 mole % [4]: > 5 fold | % Iext'n; seeded extension assay; 25 mole % [2]: 56% | % Inucl'n; nucleation assay; 100 mole % [2]: 100% | ΔLag; nucleation assay; 100 mole % [2]: > 5 ratio

B5: cholyl-Aβ16-20 (peptide)
peptide: Cholyl-KLVFF-OH
Fold Increase in Lag Time; nucleation assay; 38 mole % [1]: 3.4 fold | % Inhibition of Plateau; nucleation assay; 10 mole % [4]: 40% | % Inhibition of Plateau; nucleation assay; 100 mole % [4]: 100% | Fold Increase in Lag Time; nucleation assay; 10 mole % [4]: 2.4 fold | Fold Increase in Lag Time; nucleation assay; 100 mole % [4]: > 5 fold | % Iext'n; seeded extension assay; 25 mole % [2]: 11% | % Inucl'n; nucleation assay; 100 mole % [2]: 72% | ΔLag; nucleation assay; 100 mole % [2]: 1.8 ratio

B6: cholyl-Aβ14-20 (peptide)
peptide: Cholyl-HQKLVFF-OH
SMILES: CC(C)C[C@H](NC(=O)[C@H](CCCCN)NC(=O)[C@H](CCC(N)=O)NC(=O)[C@H](Cc1c[nH]cn1)NC(=O)CC[C@@H](C)[C@H]1CC[C@H]2[C@@H]3[C@H](O)C[C@@H]4C[C@H](O)CC[C@]4(C)[C@H]3C[C@H](O)[C@]12C)C(=O)N[C@H](C(=O)N[C@@H](Cc1ccccc1)C(=O)N[C@@H](Cc1ccccc1)C(=O)O)C(C)C
% Inhibition of Plateau; nucleation assay; 33 mole % [1]: 49% | Fold Increase in Lag Time; nucleation assay; 33 mole % [1]: 2 fold | % Inucl'n; nucleation assay; 33 mole % [2]: 70% | ΔLag; nucleation assay; 33 mole % [2]: 2 ratio

B7: unmodified Aβ6-20 (peptide)
peptide: HDSGYEVHHQKLVFF
% Inhibition of Plateau; nucleation assay; 100 mole % [5]: 76% | Fold Increase in Lag Time; nucleation assay; 100 mole % [5]: 1.66 fold

B8: unmodified Aβ11-25 (peptide)
peptide: EVHHQKLVFFAEDVG
% Inhibition of Plateau; nucleation assay; 100 mole % [5]: 47% | Fold Increase in Lag Time; nucleation assay; 100 mole % [5]: ~1 fold

B9: unmodified Aβ16-30 (peptide)
peptide: KLVFFAEDVGSNKGA
% Inhibition of Plateau; nucleation assay; 100 mole % [5]: 100% | Fold Increase in Lag Time; nucleation assay; 100 mole % [5]: > 4.5 fold

B10: unmodified Aβ21-35 (peptide)
peptide: AEDVGSNKGAIIGLM
% Inhibition of Plateau; nucleation assay; 100 mole % [5]: ~0% | Fold Increase in Lag Time; nucleation assay; 100 mole % [5]: ~1 fold

B11: unmodified Aβ26-40 (peptide)
peptide: SNKGAIIGLMVGGVV
% Inhibition of Plateau; nucleation assay; 100 mole % [5]: ~0% | Fold Increase in Lag Time; nucleation assay; 100 mole % [5]: 0.8 fold

B12: unmodified Aβ1-15 (peptide)
peptide: DAEFRHDSGYEVHHQ
% Inhibition of Plateau; nucleation assay; 100 mole % [5]: 18% | Fold Increase in Lag Time; nucleation assay; 100 mole % [5]: ~1 fold

B13: Aβ1-20, 26-40(Δ21-25) (peptide)
peptide: DAEFRHDSGYEVHHQKLVFFSNKGAIIGLMVGGVV
% Inhibition of Plateau; nucleation assay; 100 mole % [5]: ~0% | Fold Increase in Lag Time; nucleation assay; 100 mole % [5]: 2.37 fold

B14: Aβ1-15, 21-40(Δ16-20) (peptide)
peptide: DAEFRHDSGYEVHHQAEDVGSNKGAIIGLMVGGVV
% Inhibition of Plateau; nucleation assay; 100 mole % [5]: ~0% | Fold Increase in Lag Time; nucleation assay; 100 mole % [5]: 1.55 fold

B15: Aβ1-10, 16-40(Δ11-15) (peptide)
peptide: DAEFRHDSGYKLVFFAEDVGSNKGAIIGLMVGGVV
% Inhibition of Plateau; nucleation assay; 100 mole % [5]: ~0% | Fold Increase in Lag Time; nucleation assay; 100 mole % [5]: ~1.2 fold
